Legend:
HMGB2 protein [1] = test: Inhibition of HMGB2 protein by miRNAs in human and mouse cells; assay type: cell-based
Protocol: (§1) Western Blotting: Total protein lysates were prepared from livers and cells in lysis buffer containing 50 mM Tris, pH 8.0, 1% Nonidet™ P-40, 150 mM NaCl, 0.5% sodium deoxycholate, 0.1% SDS with protease inhibitors (Thermo Fisher Scientific) and subjected to immunoblotting. Nuclear and cytoplasmic subcellular fractions were prepared using NE-PER nuclear and cytoplasmic extraction reagents (Pierce) according to the manufacturer's instructions. The blot was incubated with a primary antibody, followed by a secondary antibody conjugated to horseradish peroxidase. ECL kit (Pierce) was used to detect the reactivity. The following antibodies were obtained from Cell Signaling Technology: HMGB2, HMGB1, AKT, p-AKT, mTOR, p-mTOR, ERK1/2, pERK1/2, Raptor, Rictor, p53, p21, p-Bad, Smad4, p-Smad2/3, Lamin A/C, a-SMA, MMP2, MMP9, TIMP1, RhoA, Rho-GTP, Cdc42, Rac1/2/3. Anti-HA antibody and anti-beta actin antibody were purchased from Sigma and Santa Cruz Biotechnology, respectively.
(§2) Cell culture, Cell transfection:HEK293T, Hela, Hep3B and MHCC97H cells were cultured and transfected using X-tremeGENE™ HP DNA transfection reagent (Roche) as described previously. CGR8 ES cells were cultured on 0.1% gelatin coated tissue-culture dish in knockout DMEM medium containing 15% ES qualified-Fetal Bovine Serum, 2 mM L-glutamin, 0.1 mM NEAA, 0.1 mM β-mercaptoethanol, 50 μg/ml penicillin-streptomycin and 10 ng/ml Leukemia inhibitory factor (LIF). TIC cells were cultured in DMEM-F12 medium containing Embryomax nucleotides, 2 mM L-glutamin, 0.1 mM NEAA, 20 ng/ml mouse EGF, 50 μg/ml penicillin-streptomycin and […].
We identified conserved binding sites for miR-539, miR-543, miR-181c, and miR-23α in human and mouse HMGB2 3′UTRs (not sho4wn). We tested the inhibition of HMGB2 protein by these miRNAs in both human and mouse cells. […]

HMGB2 3′UTR = HMGB2 3′UTR luciferase reporter assay in HEK293T cells; assay type: cell-based, human; conditions: 0, 75 or 150 ng miR-127 (FIG. 12A-12B)
Protocol: Luciferase reporter assay: 48 h after transfection with luciferase reporter plasmid and Renilla plasmid, cells were harvested and analyzed with the Dual-Luciferase reporter assay system (Promega) as described. All assays were done in triplicates, and all values were normalized for transfection efficiency against Renilla luciferase activities.
FIG. 12A is a sequence alignment of miR-127 and the 3′-UTR of HMGB2 in human, mouse and rat. The seed match region is indicated by underline. mut, mutant FIG. 12B is a Luciferase reporter assay. Left, HEK293T cells were transfected with HMGB2 3′UTR luciferase reporter with 0, 75 or 150 ng miR-127; Middle, HEK293T cells were transfected with wild-type or mutant HMGB2 3′UTR with or without 150 ng miR-127. Right, HEK293T cells were transfected with HMGB2 3′UTR with or without miR-127 antagomir. Luciferase activity was normalized to Renilla activity. In FIG. 12C, Western blotting was performed to determine endogenous HMGB2 protein in Hela cells that were transfected with pTarget, pTarget-miR-433, or pTarget-miR-127. β-Actin served as an internal control. In FIG. 12D, Left, western blot was performed to determine HMGB2 and CREB protein level in MHCC97H cells transfected with miR-127 for 24 hrs. Right, qPCR analysis of miR-127 level in MHCC97 cells transfected with miR-127 for 0, 24, 48 hrs. […]

TIC cells = test: TIC cell spheroid assay; assay type: cell-based; conditions: TIC cells infected with miR-127 lentivirus (FIG. 15C)
Protocol: TIC cells were trypsinized into single cells and 1000 cells were suspended in serum free TIC medium with 1% methylcellulose supplemented with B27, 20 ng/ml EGF and 20 ng/ml FGF in each well of 96-well ultralow attachment plate.

HMGB2 protein [2] = test: Western blot of HMGB2 protein in HCC cells transfected with miR-127; assay type: cell-based, human; conditions: HCC cells transfected with miR-127 (FIGS. 12C-F)
Protocol: as §1
Cell culture, Cell transfection:HEK293T, Hela, Hep3B and MHCC97H cells were cultured and transfected using X-tremeGENE™ HP DNA transfection reagent (Roche) as described previously. […]

MMP and Rho signaling = test: Western blot of MMP and Rho signaling in TIC cells; assay type: cell-based; conditions: TIC cells, miR-127 lentivirus versus GFP (FIG. 15B)
Protocol: as §1
Cell Lines The LX-2 human stellate cell line was maintained in Dulbecco's Modified Eagle's Medium (DMEM) supplemented with 2% fetal bovine serum (FBS), 100 IU/ml penicillin, and 100 μg/ml streptomycin. Human hepatocellular carcinoma (HCC) MHCC97H cells were maintained in DMEM supplemented with 10% FBS, 100 IU/ml penicillin, and 100 μg/ml streptomycin, 1 mM HEPES, 1 mM sodium pyruvate, 2 mM L-glutamine. Tumor-initiating (TIC) cells were obtained from Dr. Hidekazu Tsukamoto at University of Southern California and were maintained in 1:1 DMEM:F12 supplement with 100 U/ml penicillin and 100 μg/ml streptomycin, 2 mM glutamine, 20 ng/ml mouse EGF, 10 nM dexamethasone, 1× embryomax nucleotides. All the cells were maintained at 37° C. humidified atmosphere with 5% CO2. TIC cells were infected with Hmgb2 shRNA lentivirus for 48 hr, and treated with 500 ng/ml puromycin for 2 weeks. The stable cells were used for migration and invasion assay, as well as western blot.

CGR8 ES cells [3] = test: qPCR of ES markers and three-germ layer genes in CGR8 ES cells and EBs; assay type: cell-based, mouse; conditions: miR-127 lentivirus versus GFP; CGR8 ES cells and 4d EBs
Protocol: RNA Isolation and Analysis: RNA was isolated using TRIzol® (Thermo Fisher) according to the manufacturer's instructions. For quantitative real time RT-PCR (q-PCR), RNA was reverse transcribed using iScript™ cDNA Synthesis Kit (Bio-Rad). The resultant cDNA was amplified and quantified using SsoAdvance™ Universal SYBR® Green Supermix (Bio-Rad) in CFX384 Touch™ Real-Time PCR Detection System (BioRad). qPCR was performed in triplicate for each sample and repeated at three times. Ct values were used to calculate the relative expression level normalized to the levels of Hprt1 or beta-actin expression.
(§3) ES cells EB formation and TICs spheroid assay: CGR8 ES cells were trypsinized into single cells and cultured in ES medium devoid of LIF in hanging drops (900 cells per EB) for 2 d and transferred to ultralow attachment plate for a further 2 d suspension culture. Then, EBs were plated onto gelatin coated tissue-culture plate for further 7 d spontaneously differentiation.
(§4) Right, western blot of HMGB2, RhoA, CDC42, Rac1/2/3 in TIC cells which were infected with miR-127 or GFP lentivirus.

HMGB2 protein [4] = test: Western blot of HMGB2 in TIC cells infected with miR-127 lentivirus; assay type: cell-based; conditions: miR-127 lentivirus versus GFP (FIG. 15B)
Protocol: as §1, §4

CGR8 ES cells [5] = test: CGR8 ES cell differentiation and EB formation; assay type: cell-based, mouse; conditions: knockdown of HMGB2 (summary)
Protocol: as §2, §3
FIGS. 10A-C show the establishment of CGR8 cell culture and differentiation. […] Undifferentiated feeder-free CGR8 ES cells were maintained on 0.1% gelatin coated 6-cm tissue-culture dish in ES medium containing 10 ng/ml Leukemia inhibitory factor (LIF). For EB formation, CGR8 ES cells were trypsinized into single cells and cultured in ES medium devoid of LIF in hanging drops (900 cells per EB) for 2 d and in suspension culture for a further 2 d. Then, EBs were transferred onto gelatin coated tissue-culture plate for further spontaneously differentiation. ES withdraw LIF 2d, CGR8 ES cells were cultured in ES medium devoid of LIF for 2 d.
FIG. 14A is Left, Western blot of HMGB2 and SOX2 protein in HEK293T cells transfected with 0.5 μg […] expression plasmid and 0, 1 or 2 μg Flag-HMGB2 expression plasmid. Right, Western blot of HMGB2 and OCT4 protein in HEK293T cells transfected with 0.5 μg HA-OCT4 expression plasmid and 0, 1 or 2 μg Flag-HMGB2 expression plasmid. […] CGR8 cells were lysed, co-immunoprecipitated with OCT4 antibody, followed by Western blot with HMGB2 or OCT4 antibodies. FIG. 14 C is a luciferase reporter assay. HepG2 cells were infected with AAV8-GFP or AAV8-HMGB2 24 hrs before being transfected with 6*OS luciferase reporter and OCT4, SOX2 expression plasmids alone or in combination.

[6] = miRNA overexpression, Huh7, HEK293T, Hepa1, or TIC (FIG. 11)

B1: miR-539: microRNA, accession number NR_030256.1, SEQ ID NO: 5 (nucleic acid, listed as Homo sapiens)
chain: ATACTTGAGGAGAAATTATCCTTGGTGTGTTCGCTTTATTTATGATGAATCATACAAGGACAATTTCTTTTTGAGTAT
modifications: expressed or natural sequence
**Q.** With B1 as the molecule, how does the HMGB2 protein (HMGB2 protein [1]; [6]) read?
**A.** decreased

**Q.** And the HMGB2 protein (HMGB2 protein [1]; only in Huh7)?
**A.** inhibited

B2: miR-543: microRNA, accession number NR_030619.1, SEQ ID NO: 6 (nucleic acid, listed as Homo sapiens)
chain: TACTTAATGAGAAGTTGCCCGTGTTTTTTTCGCTTTATTTGTGACGAAACATTCGCGGTGCACTTCTTTTTCAGTATC
modifications: expressed or natural sequence
**Q.** Which HMGB2 protein (HMGB2 protein [1]; [6]) does the source give for B2 here?
**A.** decreased

B3: miR-127: microRNA, accession number NR_029696.1, SEQ ID NO: 4; targets the HMGB2 3′UTR (nucleic acid, listed as Homo sapiens)
chain: TGTGATCACTGTCTCCAGCCTGCTGAAGCTCAGAGGGCTCTGATTCAGAAAGATCATCGGATCCGTCTGAGCTTGGCTGGTCGGAAGTCTCATCATC
modifications: expressed or natural sequence
**Q.** Which results are given for B3?
**A.** targeting of HMGB2 3′UTR (luciferase reporter) (HMGB2 3′UTR): targets the HMGB2 3′UTR; spheroid formation (TIC cells): downregulates; HMGB2 protein (HMGB2 protein [2]): decreases HMGB2 protein; Rhos/CDC42/Rac signaling (MMP and Rho signaling): downregulates; differentiation markers (Bmp5, Foxa2) (CGR8 ES cells [3]): increases; stem cell marker (Oct4, Nanog, Sox2) expression (CGR8 ES cells [3]): decreases; HMGB2 protein (HMGB2 protein [4]): downregulates; CGR8 differentiation (CGR8 ES cells [5]): promotes CGR8 differentiation
